Results as given in paper doi:10.1101/2023.06.12.544689 (bioRxiv, 2023).

T1: mouse claudin-4, biotinylated (mmCLDN-4-Biotin) (mouse, UniProt O35054 1-210)
T1 sequence: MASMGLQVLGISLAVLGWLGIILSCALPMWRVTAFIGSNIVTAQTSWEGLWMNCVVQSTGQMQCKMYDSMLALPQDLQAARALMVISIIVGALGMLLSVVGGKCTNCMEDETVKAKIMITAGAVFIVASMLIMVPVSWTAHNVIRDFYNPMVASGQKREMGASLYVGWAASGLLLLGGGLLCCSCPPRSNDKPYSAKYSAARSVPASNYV

T2: human claudin-4, biotinylated (hsCLDN-4-Biotin) (human, UniProt O14493 1-209)
T2 sequence: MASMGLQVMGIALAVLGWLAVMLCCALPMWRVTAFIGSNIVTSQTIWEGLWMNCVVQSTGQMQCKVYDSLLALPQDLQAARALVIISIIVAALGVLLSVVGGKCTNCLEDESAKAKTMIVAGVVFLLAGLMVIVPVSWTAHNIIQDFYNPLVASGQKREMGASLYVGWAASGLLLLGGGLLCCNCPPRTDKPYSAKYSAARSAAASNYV

T3: human claudin-9, biotinylated (hsCLDN-9-Biotin) (human, UniProt O95484)
T3 sequence: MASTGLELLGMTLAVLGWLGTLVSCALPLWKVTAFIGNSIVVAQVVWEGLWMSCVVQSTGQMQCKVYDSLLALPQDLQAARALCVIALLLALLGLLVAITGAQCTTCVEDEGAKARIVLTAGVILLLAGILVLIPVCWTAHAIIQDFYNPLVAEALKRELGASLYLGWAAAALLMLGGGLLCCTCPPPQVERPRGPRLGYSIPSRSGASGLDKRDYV


Assays:
[1] = biological target: C-terminal domain of Clostridium perfringens enterotoxin (cCpE), tagless (Clostridium perfringens, UniProt P01558)
[2] = biological target: T1, mouse claudin-4, biotinylated …; assay: BLI
[3] = biological target: T2, human claudin-4, biotinylated …; assay: BLI
[4] = biological target: T3, human claudin-9, biotinylated …; assay: BLI

Binder | binding result [1] | Kd [2] [nM] | Kd [3] [nM] | Kd [4] [nM]
COP-3 (antibody, V domains shown) VH: EVQLVESGGGLVQPGGSLRLSCAASGFNFYSSSIHWVRQAPGKGLEWVAYISSYSGYTYYADSVKGRFTISADTSKNTAYLQMNSLRAEDTAVYYCARGYGYFDYNFSVGYALDYWGQGTLVTVSS VL: DIQMTQSPSSLSASVGDRVTITCRASQSVSSAVAWYQQKPGKAPKLLIYSASSLYSGVPSRFSGSRSGTDFTLTISSLQPEDFATYYCQQSHPWYYPITFGQGTKVEIK | binds |  |  | 
cCpE-His10 (domain or fragment) STDIEKEILDLAAATERLNLTDALNSNPAGNLYDWRSSNSYPWTQKLNLHLTITATGQKYRILASKIVDFNIYSNNFNNLVKLEQSLGDGVKDHYVDISLDAGQYVLVMKANSSYSGNYPYSILFQKF |  | < 12 | < 12 | < 12
